Results taken from patent US20220196651A1 (ALX ONCOLOGY, published 2022).

Target: Drug A
Experiment: cell-based or functional assay

B1: anti-SIRP multimer F (antibody, mouse IgG1, N297A, V domains shown)
VH: DVQLVESGGGVVRPGESLRLSCAASGFTFSSYAMSWVRQAPGKGLEWLAGISAGGSDTYYIDSVKGRFTISRDNPKNSLYLQMSSLTAEDTAVYYCARETWNHLFDYWGLGTLVTVSS
VL: ALTQPASVSANPGETVKITCSGGDYYSTYYAWYQQKSPGSAPVTVIHSDDKRPSDIPSRFSGSASGSAATLIITGVRVEDEAVYYCGGYDGRTYINTFGAGTTLTVLG
molar ratio to Drug A at which interference was mitigated, SPRCA: ≥ 1.25 x molar ratio to Drug A

B2: anti-SIRP multimer D (antibody, V domains shown)
VH: DVQLVESGGGVVRPGESLRLSCAASGFTFSSNAMSWVRQAPGKGLEWLAGISAGGSDTYYPASVKGRFTISRDNSKNTLYLQMNTLTAEDTAVYYCARETWNHLFDYWGLGTLVTVSS
VL: ALTQPASVSANPGETVKIACSGGDYYSYYYGWYQQKAPGSALVTVIYSDDKRPSDIPSRFSGSASGSTATLTITGVRAEDEAVYYCGGYDYSTYANAFGAGTTLTVL
molar ratio to Drug A (130 nM) at which no agglutination was observed, IAT tube assay: 2.5 x molar ratio to Drug A
molar ratio to Drug A (130 nM) at which no interference was observed, SPRCA: ≥ 0.63 x molar ratio to Drug A

B3: anti-SIRP multimer G (antibody, mouse IgG2a)
heavy: DVQLVESGGGVVRPGESLRLSCAASGFTFSSNAMSWVRQAPGKGLEWLAGISAGGSDTYYPASVKGRFTISRDNSKNTLYLQMNTLTAEDTAVYYCARETWNHLFDYWGLGTLVTVSSAKTTAPSVYPLAPVCGDTTGSSVTLGCLVKGYFPEPVTLTWNSGSLSSGVHTFPAVLQSDLYTLSSSVTVTSSTWPSQSITCNVAHPASSTKVDKKIEPRGPTIKPCPPCKCPAPNLLGGPSVFIFPPKIKDVLMISLSPIVTCVVVDVSEDDPDVQISWFVNNVEVHTAQTQTHREDYNSTLRVVSALPIQHQDWMSGKEFKCKVNNKDLPAPIERTISKPKGSVRAPQVYVLPPPEEEMTKKQVTLTCMVTDFMPEDIYVEWTNNGKTELNYKNTEPVLDSDGSYFMYSKLRVEKKNWVERNSYSCSVVHEGLHNHHTTKSFSRTPG
light: ALTQPASVSANPGETVKIACSGGDYYSYYYGWYQQKAPGSALVTVIYSDDKRPSDIPSRFSGSASGSTATLTITGVRAEDEAVYYCGGYDYSTYANAFGAGTTLTVLGQPKSSPSVTLFPPSSEELETNKATLVCTITDFYPGVVTVDWKVDGTPVTQGMETTQPSKQSNNKYMASSYLTLTARAWERHSSYSCQVTHEGHTVEKSLSRADCS
molar excess of Multimer G that mitigated interference, gel card, Drug A 1000 µg/mL: 4 fold molar excess relative to Drug A
molar excess of Multimer G that mitigated interference, gel card, Drug A 2000 µg/mL: 6 fold molar excess relative to Drug A
molar excess of Multimer G that mitigated interference, gel card, Drug A between 0.1 and 100 (printed ng/mL): 3 fold molar excess relative to Drug A

B4: anti-SIRP multimer E (antibody, mouse IgG1, N297A)
heavy: DVQLVESGGGVVRPGESLRLSCAASGFTFSSNAMSWVRQAPGKGLEWLAGISAGGSDTYYPASVKGRFTISRDNSKNTLYLQMNTLTAEDTAVYYCARETWNHLFDYWGLGTLVTVSSAKTTPPSVYPLAPGSAAQTNSMVTLGCLVKGYFPEPVTVTWNSGSLSSGVHTFPAVLQSDLYTLSSSVTVPSSTWPSETVTCNVAHPASSTKVDKKIVPRDCGCKPCICTVPEVSSVFIFPPKPKDVLTITLTPKVTCVVVDISKDDPEVQFSWFVDDVEVHTAQTQPREEQFASTFRSVSELPIMHQDWLNGKEFKCRVNSAAFPAPIEKTISKTKGRPKAPQVYTIPPPKEQMAKDKVSLTCMITDFFPEDITVEWQWNGQPAENYKNTQPIMDTDGSYFIYSKLNVQKSNWEAGNTFTCSVLHEGLHNHHTEKSLSHSPG
light: ALTQPASVSANPGETVKIACSGGDYYSYYYGWYQQKAPGSALVTVIYSDDKRPSDIPSRFSGSASGSTATLTITGVRAEDEAVYYCGGYDYSTYANAFGAGTTLTVLGQPKSSPSVTLFPPSSEELETNKATLVCTITDFYPGVVTVDWKVDGTPVTQGMETTQPSKQSNNKYMASSYLTLTARAWERHSSYSCQVTHEGHTVEKSLSRADCS
molar ratio to Drug A at which interference was mitigated, SPRCA: ≥ 1.25 x molar ratio to Drug A
